Laboratory results reported in US20020052473.

T1: full-length pro-IL-1H4
T1 chain: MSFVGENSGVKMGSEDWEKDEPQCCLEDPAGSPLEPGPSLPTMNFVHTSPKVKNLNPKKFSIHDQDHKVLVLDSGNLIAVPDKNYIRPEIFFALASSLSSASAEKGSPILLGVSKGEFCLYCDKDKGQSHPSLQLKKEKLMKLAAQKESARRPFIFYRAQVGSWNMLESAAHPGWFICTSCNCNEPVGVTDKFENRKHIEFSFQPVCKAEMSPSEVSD

B1: caspase 1 (protein)
chain: NPAMPTSSGSEGNVKLCSLEEAQRIWKQKSAEIYPIMDKSSRTRLALIICNEEFDSIPRRTGAEVDITGMTMLLQNLGYSVDVKKNLTASDMTTELEAFAHRPEHKTSDSTFLVFMSHGIREGICGKKHSEQVPDILQLNAIFNMLNTKNCPSLKDKPKVIIIQACRGDSPGVVWFKDSVGVSGNLSLPTTEEFEDDAIKKAHIEKDFIAFCSSTPDNVSWRHPTMGSVFIGRLIEHMQEYACSCDVEEIFRKVRFSFEQPDGRAQMPTTERVTLTRCFYLFPGH
B2: caspase 4 (protein)
chain: QISPNKKAHPNMEAGPPESGESTDALKLCPHEEFLRLCKERAEEIYPIKERNNRTRLALIICNTEFDHLPPRNGADFDITGMKELLEGLDYSVDVEENLTARDMESALRAFATRPEHKSSDSTFLVLMSHGILEGICGTVHDEKKPDVLLYDTIFQIFNNRNCLSLKDKPKVIIVQACRGANRGELWVRDSPASLEVASSQSSENLEEDAVYKTHVEKDFIAFCSSTPHNVSWRDSTMGSIFITQLITCFQKYSWCCHLEEVFRKVQQSFETPRAKAQMPTIERLSMTRYFYLFPGN

Biological target: T1, full-length pro-IL-1H4

Protein	cleavage of pro-IL-1H4 to mature IL-1H4 (SDS polyacrylamide gel)	cleavage of pro-IL-1H4
B1	Caspase 1 at a ratio of 1:50 to 1:5 (caspase:IL-1H4, weight/weight) completely cleaved pro-IL-1H4 to release the mature IL-1H4	
B2		caspase 4 also cleaved pro-IL-1H4, although not as efficiently as caspase 1
